As a reminder, the koff is the rate constant with which the complex falls apart. As a reminder, the kon is the rate constant with which the complex forms. Higher therefore signals faster complex formation.

The values that follow come from patent US20230277625A1 (SIMCHA IL 18, published 2023).

Substitutions are numbered along the chain they refer to. Names and notes keep the numbering of the source.

Experiment [1] deals with T1, Human IL-18Rα ectodomain (amino acids 19-329), biotinylated (human, UniProt Q13478 19-329, biotin on the AviTag (BirA ligase)).
T1 construct: range 19-329; Secreted from insect cells (gp67 signal peptide removed); also called hIL-18Rα; hIL18Rα
T1 sequence: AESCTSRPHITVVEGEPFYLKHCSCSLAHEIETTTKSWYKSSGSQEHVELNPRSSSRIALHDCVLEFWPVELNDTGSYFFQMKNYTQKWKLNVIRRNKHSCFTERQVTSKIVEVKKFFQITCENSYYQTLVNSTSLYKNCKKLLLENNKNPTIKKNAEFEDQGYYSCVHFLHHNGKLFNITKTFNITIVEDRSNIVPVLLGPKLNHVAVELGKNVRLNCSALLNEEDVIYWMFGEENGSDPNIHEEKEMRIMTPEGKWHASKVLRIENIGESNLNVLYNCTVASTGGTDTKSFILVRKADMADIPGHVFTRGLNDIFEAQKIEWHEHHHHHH
Description: SPR. On the technique in general: In SPR one partner is held on a chip, and binding of the other changes the refractive index at the surface.

Experiment [2] has as its target T1, Human IL-18Rα ectodomain (amino acids …). Description: SPR, apparent KD, first value of the cell. The method, then: (§1) Surface Plasmon Resonance (SPR) was used to perform biophysical affinity measurements of second generation DR-IL-18 variants (binding to IL-18R vs IL-18BP). Experiments were conducted using a Biacore T100 instrument and carried out at 25° C. Biotinylated IL-18Rα or IL-18BP were immobilized onto a Biacore biotin capture chip (Series S CAP sensor chip, GE Healthcare) to yield an Rmax of ˜50 RU (IL-18Rα) or ˜10 RU (IL-18BP). Measurements were made with serial dilutions of the IL-18 variants in HEPES buffered Saline-P+ buffer (10 mM HEPES pH 7.4, 150 mM NaCl, 0.005% surfactant P20). The surface was regenerated by three 60-sec injections of regeneration buffer (3/4 (v/v) 8M guanidine hydrochloride with ¼ (v/v) 1M sodium hydroxide). Experiments were performed in multiple channels simultaneously for increased observations. All data were analyzed with the Biacore T100 evaluation software version 2.0 with a 1:1 Langmuir binding model.

The target in experiment [3] is T2, Human IL-18BP (amino acids 31-194), biotinylated (human, UniProt O95998 31-194, biotin on the AviTag (BirA ligase) where used biotinylated).
T2 construct: Soluble decoy receptor; also called hIL-18BP; recombinant IL-18BP
T2 sequence: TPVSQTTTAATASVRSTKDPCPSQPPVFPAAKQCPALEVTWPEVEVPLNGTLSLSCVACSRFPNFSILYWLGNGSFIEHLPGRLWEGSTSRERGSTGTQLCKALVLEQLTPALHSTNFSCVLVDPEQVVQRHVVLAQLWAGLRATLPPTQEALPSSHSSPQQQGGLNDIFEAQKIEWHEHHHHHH
Description: on-yeast binding isotherms; KD ratio relative to WT IL-18; yeast-displayed variant; ratio normalized to WT, from the 20 µM placeholder.

For experiment [4], the target named is T2, Human IL-18BP (amino acids 31-194), …. Description: SPR; KD(IL-18BP)/KD(IL-18Rα) normalized to WT IL-18; SPR; ratio from the bound KD BP >10,000 nM. The method, then:
as §1

Experiment [5] deals with T1, Human IL-18Rα ectodomain (amino acids …). Kind of experiment: SPR (Biacore T100), hIL-18Rα as surface ligand, 1:1 Langmuir. The method, then:
as §1

Experiment [6] has the same target. Kind of experiment: SPR (Biacore T100), hIL-18Rα as surface ligand; Exp 1. The method, then:
as §1

The target is the same in experiment [7]. Description: SPR, apparent KD, second value of the cell. How it is done:
as §1

The target is the same in experiment [8]. Kind of experiment: SPR (Biacore T100), hIL-18Rα as surface ligand; Exp 2. How it is done: as §1
Experiment [9] has the same target. Description: on-yeast binding isotherm (flow cytometry), drawn summary table, IL18Rα (KD). How it is done: Individual colonies of IL-18 yeast were grown overnight at 30° C. in SDCAA liquid media and induced in SGCAA liquid media for 1 day at 20° C. IL-18 display levels on yeast were verified by flow cytometry using an anti-cMyc tag antibody (anti-myc-PE; Cell Signaling Technologies). Receptor staining with biotinylated IL-18Rα (with or without IL-18R β) or biotinylated IL-18BP was performed in PBS supplemented with 0.5% BSA and 2 mM EDTA (PBE) on ice. All analysis was performed on a Sony SA3800 flow cytometer.

For experiment [10], the target named is T2, Human IL-18BP (amino acids 31-194), …. Kind of experiment: on-yeast binding isotherms; 20 µM used for NBD; printed without '>'; yeast-displayed variant; ratio computed with 20 µM put in for NBD.
In experiment [11] the target is T3, IL-18 receptor (IL-18Rα / IL-18Rβ heterodimer) on HEK-Blue IL-18 reporter cells (UniProt Q13478 19-541; O95256 20-599, limits assumed).
T3 sequence (looked up) 1: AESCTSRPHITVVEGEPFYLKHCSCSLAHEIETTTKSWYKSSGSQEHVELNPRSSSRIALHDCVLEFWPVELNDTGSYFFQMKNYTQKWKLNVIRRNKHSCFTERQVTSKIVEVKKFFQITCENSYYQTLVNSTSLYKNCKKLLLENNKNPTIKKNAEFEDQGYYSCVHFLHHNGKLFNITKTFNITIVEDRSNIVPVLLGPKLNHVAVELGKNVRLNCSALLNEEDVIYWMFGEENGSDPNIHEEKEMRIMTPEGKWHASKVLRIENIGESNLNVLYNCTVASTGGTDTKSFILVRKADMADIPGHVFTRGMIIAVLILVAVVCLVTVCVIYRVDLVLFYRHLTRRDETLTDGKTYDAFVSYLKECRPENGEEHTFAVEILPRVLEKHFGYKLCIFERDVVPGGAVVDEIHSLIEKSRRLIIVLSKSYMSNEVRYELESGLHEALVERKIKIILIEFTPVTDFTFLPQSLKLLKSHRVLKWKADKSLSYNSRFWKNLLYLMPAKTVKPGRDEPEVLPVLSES
T3 sequence (looked up) 2: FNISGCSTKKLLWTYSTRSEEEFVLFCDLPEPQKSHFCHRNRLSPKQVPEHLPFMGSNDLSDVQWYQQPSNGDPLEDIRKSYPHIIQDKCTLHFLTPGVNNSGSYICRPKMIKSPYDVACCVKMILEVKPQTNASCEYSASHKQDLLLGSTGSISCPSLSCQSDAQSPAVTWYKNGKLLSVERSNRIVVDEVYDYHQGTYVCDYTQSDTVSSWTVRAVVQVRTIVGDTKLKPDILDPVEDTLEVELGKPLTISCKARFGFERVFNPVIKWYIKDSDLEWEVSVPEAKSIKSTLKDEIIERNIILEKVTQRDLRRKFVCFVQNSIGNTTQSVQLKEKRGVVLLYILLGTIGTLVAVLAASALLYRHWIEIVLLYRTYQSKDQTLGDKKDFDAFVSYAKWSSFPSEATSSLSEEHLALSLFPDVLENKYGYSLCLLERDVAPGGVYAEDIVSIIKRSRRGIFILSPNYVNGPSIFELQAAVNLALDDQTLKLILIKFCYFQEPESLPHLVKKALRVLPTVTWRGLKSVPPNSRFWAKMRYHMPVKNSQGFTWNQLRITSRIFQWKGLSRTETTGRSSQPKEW
Description: cell-based or functional assay.

In experiment [12] the target is T2, Human IL-18BP (amino acids 31-194), …. Kind of experiment: on-yeast binding isotherm (flow cytometry), drawn summary table, column IL18BP (KD). For orientation: A flow cytometer gives signals particle by particle.

B1: SEQ ID NO: 87 (second generation human DR-IL-18 variant 6-31) (ligand)
chain: YFGKLESKLSVIRNLNDQVLFIDQGNRPLFEDMTDSDCRDNAPRTIFIISKYGDSGARGLAVTISVKCEKISTLSCENKIISFKEMNPPDNIKDTKSDIIFFERDVPGHSGKVQFESSSYEGYFLACEKERDLFKLILKKEDELGDRSIMFTVQNED
notes: Engineered variant; recombinant soluble analyte in SPR and cell assays
B1: the Kd in experiment [1] is 19.4 nM; in [2], 15.2 nM; in experiment [6], 19.4 nM; in experiment [7] it was 19.4 nM; in [8], 15.2 nM; in experiment [9], 41 nM. Besides, the “Dissociation Constant Ratio normalized to WT IL-18” value in [3] is > 7200. Moreover, the “IL-18 BP:Rα Dissociation Constant Ratio” value in [4] is > 1.06e+06. Also, in experiment [5], the koff was 0.00332 s⁻¹. This molecule also came in with a kon in experiment [5] of 218000 M⁻¹ s⁻¹. Besides, the “KD ratio IL-18BP/IL-18Rα” value in experiment [10] was > 490.

B2: SEQ ID NO: 20 (SEQ ID NO: 89 plus C38S/C68E) (ligand)
chain: B1 chain with C38S, G53S, G56L, C68E, E103Q, G111R, V113M
Regarding B2, in experiment [11], the “EC50-#1 (M), HEK-Blue reporter” value amounted to 1.35e-10 M and the “EC50-#2 (M), HEK-Blue reporter” value turned out to be 1.62e-10 M.

B3: SEQ ID NO: 17 (SEQ ID NO: 89 plus C38S/C68A) (ligand)
chain: B1 chain with C38S, G53S, G56L, C68A, E103Q, G111R, V113M
On to B3, for which, in experiment [11], the “EC50-#1 (M), HEK-Blue reporter” value was 1.41e-10 M and the “EC50-#2 (M), HEK-Blue reporter” value stood at 1.09e-10 M.

B4: SEQ ID NO: 16 (SEQ ID NO: 89 plus C38S/C68G) (ligand)
chain: B1 chain with C38S, G53S, G56L, C68G, E103Q, G111R, V113M
On to B4, for which, in experiment [11], the “EC50-#1 (M), HEK-Blue reporter” value amounted to 2.05e-10 M and the “EC50-#2 (M), HEK-Blue reporter” value stood at 1.54e-10 M.

B5: SEQ ID NO: 18 (SEQ ID NO: 89 plus C38S/C68V) (ligand)
chain: B1 chain with C38S, G53S, G56L, C68V, E103Q, G111R, V113M
Turning to B5, in experiment [11], the “EC50-#1 (M), HEK-Blue reporter” value is 5.19e-11 M and the “EC50-#2 (M), HEK-Blue reporter” value is 4.48e-11 M.

B6: SEQ ID NO: 6 (SEQ ID NO: 89 plus C38S/C68S) (ligand)
chain: B1 chain with C38S, G53S, G56L, C68S, E103Q, G111R, V113M
On to B6, for which, in [11], the “EC50-#1 (M), HEK-Blue reporter” value was 1.96e-10 M and the “EC50-#2 (M), HEK-Blue reporter” value was found to be 1.3e-10 M.

B7: SEQ ID NO: 21 (SEQ ID NO: 89 plus C38S/C68N) (ligand)
chain: B1 chain with C38S, G53S, G56L, C68N, E103Q, G111R, V113M
Regarding B7, in experiment [11], the “EC50-#1 (M), HEK-Blue reporter” value was found to be 1.28e-10 M and the “EC50-#2 (M), HEK-Blue reporter” value was 1.24e-10 M.

B8: SEQ ID NO: 98 (human D2D IL-18 variant hD2D-5F02) (ligand)
chain: HFGKLESKLSVIRNLNGQVLFIDQGNRPLFGDMEASPCRDNAPRTIFIISFYKDSQPRGMAVTISVKCEKISTLSCENKIISFKEMNPPDNIKDTKSDIIFFIRSVPGADNKLQFESSSYEGYFLACEKERDLFKLILKKEDELGDRSIMFTVQNED
notes: Engineered decoy-to-the-decoy variant
In turn, B8 had a Kd in experiment [12] of 5.4 nM.

B9: SEQ ID NO: 123 (human D2D IL-18 consensus hD2D-CS1) (ligand)
chain: B8 chain with H1Y, G31A, E34T, A35D, P37D, F51M, I103L, A109H, L113M
notes: as for B8
In [12], B9 yielded a Kd of 5.9 nM.

B10: SEQ ID NO: 124 (human D2D IL-18 consensus hD2D-CS2) (ligand)
chain: B8 chain with H1Y, G31A, E34T, A35S, P37D, I103L, A109H, L113M
notes: as for B8
In the case of B10, the Kd in experiment [12] turned out to be 7.9 nM.

B11: SEQ ID NO: 101 (human D2D IL-18 variant hD2D-5E08) (ligand)
chain: B8 chain with H1Y, G31T, E34T, M60L, I103L, A109H, L113I, D132S
notes: as for B8
As for B11, in [12], the Kd was 8.8 nM.

B12: SEQ ID NO: 125 (human D2D IL-18 consensus hD2D-CS3) (ligand)
chain: B8 chain with H1Y, G31A, A35S, P37D, M60L, I103L, A109H, L113M
notes: as for B8
For B12, the Kd in [12] is 8.9 nM.

B13: SEQ ID NO: 99 (human D2D IL-18 variant hD2D-5F01) (ligand)
chain: B8 chain with G31T, E34T, A35S, P37D, N41K, M60L, I103L, A109P, L113F
notes: as for B8
In [12], B13 returned a Kd of 4.8 nM.

B14: SEQ ID NO: 94 (human D2D IL-18 variant hD2D-5F10) (ligand)
chain: B8 chain with G31A, M60L, I103L, A109H, L113M
notes: as for B8
Molecule B14 showed a Kd in experiment [12] of 6.4 nM.

B15: SEQ ID NO: 120 (human D2D IL-18 variant hD2D-5B02) (ligand)
chain: B8 chain with H1Y, G31A, E34T, A35S, S36K, P37R, F51L, M60F, A109H, L113I
notes: as for B8
The molecule B15 gave a Kd in experiment [12] of 4.2 nM.
